Key:
[1] = biological target: T1, human FcRH5 on stably transfected cells (BJAB.huFcRH5, OPM2.huFcRH5) (human, UniProt Q96RD9 16-977); assay: Scatchard analysis: 0.5 nM 125I-labeled antibody competed with the unlabeled antibody (50 to 0.02 nM) on OPM2.huFcRH5 cells, 4 h at 4 C; St. Error 0.012
T1 construct: also called BJAB-FcRH5; OPM2-FcRH5
T1 chain: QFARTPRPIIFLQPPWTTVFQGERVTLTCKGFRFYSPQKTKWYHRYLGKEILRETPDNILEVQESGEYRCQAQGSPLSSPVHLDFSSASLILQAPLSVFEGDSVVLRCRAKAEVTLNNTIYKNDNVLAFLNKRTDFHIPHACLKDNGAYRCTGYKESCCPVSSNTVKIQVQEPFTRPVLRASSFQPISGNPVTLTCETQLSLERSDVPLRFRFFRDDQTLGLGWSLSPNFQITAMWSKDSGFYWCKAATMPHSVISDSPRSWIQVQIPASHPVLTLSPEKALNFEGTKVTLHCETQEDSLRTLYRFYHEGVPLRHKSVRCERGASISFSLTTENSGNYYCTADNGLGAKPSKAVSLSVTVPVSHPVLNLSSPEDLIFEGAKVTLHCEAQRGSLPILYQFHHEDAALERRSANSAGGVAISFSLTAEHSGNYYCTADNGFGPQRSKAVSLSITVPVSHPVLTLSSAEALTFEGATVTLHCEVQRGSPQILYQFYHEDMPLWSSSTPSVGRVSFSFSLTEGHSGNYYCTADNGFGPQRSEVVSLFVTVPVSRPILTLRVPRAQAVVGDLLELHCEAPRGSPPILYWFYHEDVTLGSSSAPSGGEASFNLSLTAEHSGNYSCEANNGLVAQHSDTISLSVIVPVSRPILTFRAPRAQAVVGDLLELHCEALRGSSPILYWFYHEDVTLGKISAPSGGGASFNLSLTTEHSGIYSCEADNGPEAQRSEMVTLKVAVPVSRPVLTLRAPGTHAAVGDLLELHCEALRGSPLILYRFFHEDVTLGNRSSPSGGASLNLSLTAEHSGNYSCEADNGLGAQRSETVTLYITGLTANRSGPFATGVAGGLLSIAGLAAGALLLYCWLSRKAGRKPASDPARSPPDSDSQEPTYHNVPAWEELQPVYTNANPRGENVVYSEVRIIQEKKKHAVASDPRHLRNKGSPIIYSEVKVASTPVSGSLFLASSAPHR
Description: (§1) To further determine binding of the FcRH5 murine antibodies and IgG clones, binding of iodinated IgG variants to OPM2 cells expressing human FcRH5 and SVT2 cells expressing cynomologous FcRH5, Scatchard analysis was performed (Table 9A).
(§2) For Scatchard analysis, 0.5 nM I¹²⁵ labeled murine or IgG clone anti-FcRH5 was competed against unlabeled murine or IgG clone anti-FcRH5, respectively, ranging from 50 to 0.02 nM (12 step 1:2 serial dilution) in the presence of a transfected OPM2 line stably expressing human-FcRH5 and a transfected SVT2 line stably expressing cynomologous-FcRH5. After a four hour incubation at 4° C., cells were washed and cell pellet counts were read by a gamma counter (1470 WIZARD Automatic Gamma Counter; Perkin Elmer, Walthem, Mass.). All points were done in triplicate and counted for 10 minutes. The average CPM was used for Kd calculation using the New Ligand (Genentech, South San Francisco, Calif.) program.

[2] = biological target: T2, cynomolgus FcRH5 on stably transfected SVT2 cells (cynomologous monkey); assay: Scatchard analysis: 0.5 nM 125I-labeled antibody competed with the unlabeled antibody (50 to 0.02 nM) on SVT2.cyFcRH5 cells, 4 h at 4 C; St. Error 0.027
T2 construct: also called cyno FcRH5; cynoFcRH5
T2 chain: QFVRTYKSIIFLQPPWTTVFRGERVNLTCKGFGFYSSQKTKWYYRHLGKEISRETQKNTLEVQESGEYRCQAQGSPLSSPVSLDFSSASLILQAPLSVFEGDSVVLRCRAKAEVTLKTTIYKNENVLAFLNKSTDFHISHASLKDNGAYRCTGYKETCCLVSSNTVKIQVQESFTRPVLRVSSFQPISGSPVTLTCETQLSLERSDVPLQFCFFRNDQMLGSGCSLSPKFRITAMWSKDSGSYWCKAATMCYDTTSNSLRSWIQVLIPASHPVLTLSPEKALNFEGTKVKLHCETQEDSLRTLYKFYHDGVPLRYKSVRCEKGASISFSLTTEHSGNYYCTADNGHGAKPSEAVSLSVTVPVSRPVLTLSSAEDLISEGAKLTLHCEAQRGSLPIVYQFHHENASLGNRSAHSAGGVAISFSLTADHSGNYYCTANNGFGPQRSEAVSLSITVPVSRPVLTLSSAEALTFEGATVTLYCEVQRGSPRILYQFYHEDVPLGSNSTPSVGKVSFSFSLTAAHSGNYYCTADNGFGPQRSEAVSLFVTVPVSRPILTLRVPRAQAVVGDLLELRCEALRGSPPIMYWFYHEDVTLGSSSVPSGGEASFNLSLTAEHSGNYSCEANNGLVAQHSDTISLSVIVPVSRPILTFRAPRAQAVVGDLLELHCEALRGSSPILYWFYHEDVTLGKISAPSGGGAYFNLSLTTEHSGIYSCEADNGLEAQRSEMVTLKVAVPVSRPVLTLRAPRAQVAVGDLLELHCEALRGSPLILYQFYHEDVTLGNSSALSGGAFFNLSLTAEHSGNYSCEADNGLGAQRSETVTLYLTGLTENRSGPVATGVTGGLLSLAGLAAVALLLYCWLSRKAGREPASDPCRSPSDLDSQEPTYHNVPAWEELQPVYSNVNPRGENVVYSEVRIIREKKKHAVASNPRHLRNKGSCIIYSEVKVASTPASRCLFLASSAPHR
Description: as §1, §2

[3] = biological target: T2, cynomolgus FcRH5 on stably transfected …; assay: Scatchard analysis: 0.5 nM 125I-labeled antibody competed with the unlabeled antibody (50 to 0.02 nM) on SVT2.cyFcRH5 cells (printed SVT2.cyFcRHS), 4 h at 4 C; St. Error 0.012
Description: as §1, §2

[4] = biological target: T1, human FcRH5 on stably transfected cells …; assay: Scatchard analysis: 0.5 nM 125I-labeled antibody competed with the unlabeled antibody (50 to 0.02 nM) on OPM2.huFcRH5 cells, 4 h at 4 C; St. Error 0.027
Description: as §1, §2

B1: humanized anti-FcRH5 antibody 13G9 version 1 (antibody, human IgG1, V domains shown)
VH: EVQLVQSGGGLVQPGGSLRLSCAASGYTFTNYGMNWVRQAPGKGLEWVGWVNTYTGEPTYTDDFKGRFTFSVDTSKSTVYLQMNSLRAEDTAVYYCARRSIPYYYAMDYWGQGTLVTVS
VL: DIQMTQSPSSLSASVGDRVTITCKASQNVGSNVAWYQQKPGKAPKALIYSASYRYSGVPSRFSGSGSGTDFTLTISSLQPEDFATYYCQQYKTWTFGQGTKVEIKR
notes: also called hu13G9.v1; hu13G9 v1
**Q.** Which results are given for B1?
**A.** Kd [1]: 0.2 nM; Kd [2]: 0.56 nM

B2: humanized anti-FcRH5 antibody hu13G9.1b (antibody, human IgG1, V domains shown)
VH: EVQLVQSGGGLVQPGGSLRLSCAASGYTFTNYGMNWVRQAPGKGLEWVGWVNTYTGEPTYTDDFKGRFTFSVDTSKSTVYLQMNSLRAEDTAVYYCARRSIPYYYAMDYWGQGTLVTVS
VL: DIQMTQSPSSLSASVGDRVTITCKASQNVGSNVAWYQQKPGKAPKALIYSASYRYSGVPSRFSGSGSGTDFTLTISSLQPEDFATYFCQQYKTWTFGQGTKVEIKR
notes: Full IgG as hu13G9.1a (human IgG1, kappa)
**Q.** What does the source list for B2?
**A.** Kd [3]: 0.53 nM; Kd [4]: 0.3 nM

— patent publication US20130089497A1 (Genentech, published 2013)
